Experiments:
[1] = target: T1, recombinant human PDGF-BB (human, UniProt P01127 82-190); assay: competition ELISA: blocks hPDGF-BB-biotin binding to coated hPDGF-Rβ-Fc
T1 construct: also called hPDGF-BB; huPDGF-BB
Experimental: Plates were then washed four times with wash buffer (TBS, 0.05% Tween-20) and blocked with Superblock blocking buffer (Thermo Scientific, cat#37535). During the blocking step, supernatants, antibodies, benchmark compounds or DVD-Ig were diluted in assay diluent (10% Superblock containing 0.05% surfactamps) and an eight point titration of each sample molecule was performed. […] Following incubation, plates were washed four times with wash buffer. Detection reagent Streptavidin-polyHRP-40 (Fitzgerald, cat#65r-s104phrp) was diluted in assay diluent and added to plates (50 μL) for 45 minutes at 25° C. with shaking. Plates were washed four times with wash buffer and developed with the addition of Enhanced K-blue TMB substrate (Neogen, cat#308177). The reaction was stopped with 2N sulfuric acid (VWR, cat# BDH3500-1) and the absorbance was read at 450 nm-570 nm. […] Data was analyzed using Softmax Pro 4.8 software and IC₅₀ values calculated using a sigmoidal dose response (variable slope) fit in GraphPad Prism 5.

[2] = target: T2, recombinant human VEGF165 (human, UniProt P15692 207-395); assay: competition ELISA: blocks biotinylated hVEGF165 binding to coated hVEGF-R2-Fc
T2 construct: also called hVEGF165; huVEGF-A165
Experimental: To identify molecules that could block the binding of hVEGF₁₆₅ to the hVEGF-R2 (KDR/Flk-1) receptor, a competition ELISA was performed. […] Plates were then washed four times with wash buffer (TBS, 0.05% Tween-20) and blocked with Superblock blocking buffer (Thermo Scientific, cat#37535). […] The pre-incubated sample/hVEGF₁₆₅ complex was added to the coated plate at 50 μL in duplicate and incubated for 30 minutes at 25° C. with shaking. Following incubation, plates were washed four times with wash buffer. Streptavidin-polyHRP-40 (Fitzgerald cal#65r-s104phrp) was diluted in assay diluent (10% Superblock containing 0.05% surfactamps) and added to plates (50 μL) for 45 minutes at 25° C. with shaking. Plates were washed four times with wash buffer and developed with the addition of Enhanced K-blue TMB substrate (Neogen cat#308177). The reaction was stopped with 2N sulfuric acid (VWR, cat# BDH3500-1) and the absorbance was read at 450 nm-570 nm. A decrease in observed optical density indicates the test molecule is blocking the hVEGF₁₆₅ binding to the hVEGF-R2-Fc. Data was analyzed using Softmax Pro 4.8 software and IC₅₀ values calculated using a sigmoidal dose response (variable slope) fit in GraphPad Prism 5.

[3] = target: T3, Recombinant human FcγRIIb, 6xHis-tagged (human, UniProt P31994 46-217, limits assumed); assay: Biacore SPR; His-tagged human FcγR captured on anti-6xHis antibody, DVD-Ig injected
T3 construct: Captured through its 6xHis tag; also called huFcRIIb
T3 sequence: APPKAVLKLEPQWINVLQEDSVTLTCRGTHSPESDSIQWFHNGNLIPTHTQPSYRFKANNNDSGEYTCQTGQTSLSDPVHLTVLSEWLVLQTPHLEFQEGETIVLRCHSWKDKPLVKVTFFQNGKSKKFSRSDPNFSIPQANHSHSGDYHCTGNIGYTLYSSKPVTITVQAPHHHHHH
Experimental: (§1) A CM5 chip (GE Healthcare, Pittsburgh, Pa.) with mouse anti-6×His antibodies (“6×His” disclosed as SEQ ID NO: 405) that were directly immobilized on the chip via amine coupling according to the GE Healthcare protocol to the density of 10000RU (all flow cells) was used for experiments. Human FcγRs were captured on flow cells 2, 3 and 4. Flow cell 1 was used as a reference surface. HBS-EP+ was used as the running buffer. […] The chip surfaces were regenerated with an injection of 10 mM glycine pH 1.5 at a flow rate of 100 μL/minute over all four flow cells after each cycle.

[4] = target: T4, Recombinant human FcγRIIa H131, 6xHis-tagged (human, UniProt P12318 36-218, limits assumed); assay: as above
T4 construct: Captured through its 6xHis tag
T4 sequence: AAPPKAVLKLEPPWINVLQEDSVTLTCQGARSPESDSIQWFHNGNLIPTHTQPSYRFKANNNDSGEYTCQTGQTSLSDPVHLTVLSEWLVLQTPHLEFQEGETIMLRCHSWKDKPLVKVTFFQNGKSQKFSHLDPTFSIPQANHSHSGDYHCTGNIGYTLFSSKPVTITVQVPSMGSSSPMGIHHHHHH
Experimental: as §1

[5] = target: T5, Recombinant human FcγRIIa R131, 6xHis-tagged (human, UniProt P12318 36-218, limits assumed); assay: as above
T5 construct: Captured through its 6xHis tag
T5 sequence: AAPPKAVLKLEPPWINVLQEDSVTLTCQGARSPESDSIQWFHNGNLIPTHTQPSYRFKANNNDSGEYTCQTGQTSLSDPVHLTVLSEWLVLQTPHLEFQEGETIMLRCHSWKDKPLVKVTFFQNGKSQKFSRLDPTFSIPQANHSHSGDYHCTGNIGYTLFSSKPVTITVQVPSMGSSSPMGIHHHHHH
Experimental: as §1

[6] = target: T6, Recombinant human FcγRIIIa F158, 6xHis-tagged (human, UniProt P08637 17-208, limits assumed); assay: as above
T6 construct: Captured through its 6xHis tag
Experimental: as §1

Recombinant rat FcRn = target: T7, Recombinant rat FcRn (rat, UniProt P13599 23-298, limits assumed); assay: Biacore SPR; DVD-Ig immobilised by amine coupling, recombinant FcRn injected; 1:1 binding fit
T7 construct: FcRn is normally a heterodimer with beta-2-microglobulin
T7 sequence (looked up) 1: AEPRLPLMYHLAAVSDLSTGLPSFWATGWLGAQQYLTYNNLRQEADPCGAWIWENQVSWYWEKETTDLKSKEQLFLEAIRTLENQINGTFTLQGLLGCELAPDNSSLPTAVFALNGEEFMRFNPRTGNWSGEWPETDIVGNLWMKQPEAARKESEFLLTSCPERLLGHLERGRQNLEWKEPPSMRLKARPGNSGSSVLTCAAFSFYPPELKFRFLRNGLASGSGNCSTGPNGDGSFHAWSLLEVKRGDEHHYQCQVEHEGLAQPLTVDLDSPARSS
T7 sequence (looked up) 2: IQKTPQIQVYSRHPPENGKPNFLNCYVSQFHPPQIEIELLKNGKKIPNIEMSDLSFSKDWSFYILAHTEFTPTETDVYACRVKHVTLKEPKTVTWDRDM
Experimental: Human, cynomolgus, mouse, rat and rabbit recombinant FcRns were injected over all the flow cells at a flow rate of 50 μL/minute for 1 minute at a concentrations range of from 2.7 to 6000 nM (three fold serial dilution), followed by a 2 minute dissociation time. The surfaces were regenerated with an injection of 10 mM HCl at 100 μL/minute for 2 seconds followed by an injection of HBS-EP+, pH 7.4, at a flow rate of 50 μL/minute for 30 seconds over all four flow cells. Samples were prepared and run in two running buffer systems, pH 6.0 MES-EP+, and pH […]. Recombinant human FcγRIIIa V158 and rat and mouse FcRn data were fitted to 1:1 kinetic model. Recombinant human FcγRIIa R131 and FcγRIIa H131, FcγRIIIa F158, and recombinant human, cynomolgus and rabbit FcRn binding data were fitted to a steady state affinity model. Biacore T200 Evaluation Software version 2.0 was used to fit all the data.

[7] = target: T8, Recombinant human FcγRIIIa V158, 6xHis-tagged (human, UniProt P08637 17-208, limits assumed); assay: Biacore SPR; His-tagged huFcγRIIIa 158V captured on anti-6xHis antibody, DVD-Ig injected; steady state fit
T8 construct: Captured through its 6xHis tag; also called huFcRIIIa 158V
Experimental: as §1
The binding of DVD-Ig molecules to FcRn from various species and the binding of DVD-Ig molecules to various FcγRs were characterized by Biacore using the method described in Example 1.2.

Human VEGF-A 165 = Human VEGF-A 165 (human, UniProt P15692 207-395); assay: cell-based or functional assay
Human VEGF-A 165, sequence (P15692 other isoform, or with tags, fused parts or gaps): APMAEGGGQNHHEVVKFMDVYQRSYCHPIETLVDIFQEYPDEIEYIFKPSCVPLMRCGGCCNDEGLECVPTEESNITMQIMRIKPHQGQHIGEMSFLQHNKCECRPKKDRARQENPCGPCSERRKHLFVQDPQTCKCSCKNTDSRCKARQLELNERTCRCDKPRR

T2 sequence (P15692 other isoform, or with tags, fused parts or gaps limits assumed): as the sequence (P15692 other isoform, or with tags, fused parts or gaps) above
T6 sequence (P08637 other isoform, or with tags, fused parts or gaps limits assumed): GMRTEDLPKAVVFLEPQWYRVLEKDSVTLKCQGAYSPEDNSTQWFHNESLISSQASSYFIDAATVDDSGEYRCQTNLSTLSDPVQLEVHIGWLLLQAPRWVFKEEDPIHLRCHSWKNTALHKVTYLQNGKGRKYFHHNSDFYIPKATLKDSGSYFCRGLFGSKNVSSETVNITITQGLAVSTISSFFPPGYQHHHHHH
T8 sequence (P08637 other isoform, or with tags, fused parts or gaps limits assumed): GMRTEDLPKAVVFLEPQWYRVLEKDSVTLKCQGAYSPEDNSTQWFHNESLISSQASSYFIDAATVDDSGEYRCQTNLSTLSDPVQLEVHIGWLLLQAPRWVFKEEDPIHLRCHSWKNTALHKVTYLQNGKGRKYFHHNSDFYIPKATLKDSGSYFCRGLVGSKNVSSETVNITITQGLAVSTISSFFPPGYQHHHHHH
T1 sequence (P01127 82-190 limits assumed): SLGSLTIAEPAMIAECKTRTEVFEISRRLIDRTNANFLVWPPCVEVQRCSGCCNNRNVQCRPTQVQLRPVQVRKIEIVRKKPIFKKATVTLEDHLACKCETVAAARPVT

B1: hVEGF 4G8.3-LS-hPDGF 9E8.4 [hu IgG1/k] mut(234, 235) H435A (bispecific antibody)
heavy: EVQLVQSGSELKKPGASVKVSCKASGYTFTNYGMYWVRQAPGQGLEWMGWINTETGKPTYADDFKGRFVFSLDTSVSTAYLQISSLKAEDTAVYYCARTNYYYRSYIFYFDYWGQGTMVTVSSASTKGPSVFPLAPEVTLRESGPALVKPTQTLTLTCTFSGFSLSTYGMGVGWIRQPPGKALEWLANIWWDDDKYYNPSLKNRLTISKDTSKNQVVLTMTNMDPVDTATYYCARIESIGTTYSFDYWGQGTMVTVSSASTKGPSVFPLAPSSKSTSGGTAALGCLVKDYFPEPVTVSWNSGALTSGVHTFPAVLQSSGLYSLSSVVTVPSSSLGTQTYICNVNHKPSNTKVDKKVEPKSCDKTHTCPPCPAPEAAGGPSVFLFPPKPKDTLMISRTPEVTCVVVDVSHEDPEVKFNWYVDGVEVHNAKTKPREEQYNSTYRVVSVLTVLHQDWLNGKEYKCKVSNKALPAPIEKTISKAKGQPREPQVYTLPPSREEMTKNQVSLTCLVKGFYPSDIAVEWESNGQPENNYKTTPPVLDSDGSFFLYSKLTVDKSRWQQGNVFSCSVMHEALHNAYTQKSLSLSPGK
light: DTVLTQSPATLSLSPGERATLSCRASESVSTHMHWYQQKPGQAPRLLIYGASNLESGVPARFSGSGSGTDFTLTISSLEPEDFAVYFCQQSWNDPFTFGQGTKLEIKRTVAAPEFVLTQSPGTLSLSPGERATLSCERSSGDIGDSYVSWYQQKPGQAPRLVIYADDQRPSGIPDRFSGSGSGTDFTLTISRLEPEDFAVYYCQSYDINIDIVFGGGTKVEIKGTVAAPSVFIFPPSDEQLKSGTASVVCLLNNFYPREAKVQWKVDNALQSGNSQESVTEQDSKDSTYSLSSTLTLSKADYEKHKVYACEVTHQGLSSPVTKSFNRGEC
notes: DVD-Ig, outer hBDB-4G8.3, inner hBDI-9E8.4, HG-long/LK-short; also called PR-1575573; 4G8.3-LS-9E8.4
- IC50 [1]: > 5 nM
- IC50 [2]: 0.131 nM

B2: 4G8.3-SL-9E8.4 (PR-1569579), anti-VEGF-A/anti-PDGF-BB DVD-Ig, hu IgG1/k mut(234,235) H435A (bispecific antibody)
heavy: EVQLVQSGSELKKPGASVKVSCKASGYTFTNYGMYWVRQAPGQGLEWMGWINTETGKPTYADDFKGRFVFSLDTSVSTAYLQISSLKAEDTAVYYCARTNYYYRSYIFYFDYWGQGTMVTVSSASTKGPEVTLRESGPALVKPTQTLTLTCTFSGFSLSTYGMGVGWIRQPPGKALEWLANIWWDDDKYYNPSLKNRLTISKDTSKNQVVLTMTNMDPVDTATYYCARIESIGTTYSFDYWGQGTMVTVSSASTKGPSVFPLAPSSKSTSGGTAALGCLVKDYFPEPVTVSWNSGALTSGVHTFPAVLQSSGLYSLSSVVTVPSSSLGTQTYICNVNHKPSNTKVDKKVEPKSCDKTHTCPPCPAPEAAGGPSVFLFPPKPKDTLMISRTPEVTCVVVDVSHEDPEVKFNWYVDGVEVHNAKTKPREEQYNSTYRVVSVLTVLHQDWLNGKEYKCKVSNKALPAPIEKTISKAKGQPREPQVYTLPPSREEMTKNQVSLTCLVKGFYPSDIAVEWESNGQPENNYKTTPPVLDSDGSFFLYSKLTVDKSRWQQGNVFSCSVMHEALHNAYTQKSLSLSPGK
light: DTVLTQSPATLSLSPGERATLSCRASESVSTHMHWYQQKPGQAPRLLIYGASNLESGVPARFSGSGSGTDFTLTISSLEPEDFAVYFCQQSWNDPFTFGQGTKLEIKRTVAAPSVFIFPPEFVLTQSPGTLSLSPGERATLSCERSSGDIGDSYVSWYQQKPGQAPRLVIYADDQRPSGIPDRFSGSGSGTDFTLTISRLEPEDFAVYYCQSYDINIDIVFGGGTKVEIKGTVAAPSVFIFPPSDEQLKSGTASVVCLLNNFYPREAKVQWKVDNALQSGNSQESVTEQDSKDSTYSLSSTLTLSKADYEKHKVYACEVTHQGLSSPVTKSFNRGEC
notes: also called hVEGF 4G8.3-SL-hPDGF 9E8.4 [hu IgG1/k] mut(234, 235) H435A
- binding result [3]: no binding (tested: DVD-Ig 31.25 to 4000 nM)
- binding result [4]: no binding (tested: DVD-Ig 31.25 to 4000 nM)
- binding result [5]: no binding (tested: DVD-Ig 31.25 to 4000 nM)
- binding result [6]: no binding (tested: DVD-Ig 31.25 to 4000 nM)
- binding result (Recombinant rat FcRn): no binding (tested: FcRn 2.7 to 6000 nM)
- Kd [7]: 12000 nM

B3: chBEW-9D2 (antibody, human IgG1, kappa, L234A L235A, V domains shown)
VH: QIQLVQSGPELKKPGESVKISCKASGYTFTNYGMYWVKLAPGQGLQYLGWINTETGKPTYADDFKGRFVFFLETSASTAYLQINNLRNEDMATYFCARPSDYYDGFWFAYWGQGTLVTVSS
VL: DTVLTQSPALTVSPGERVSISCRASEWVNSYMHWYQQNPGQQPKLLIYKASNLASGVPARFSGSGSGTDFTLTLDPVEADDTATYFCQQSWNDPLTFGSGTKLEIKR
- huVEGF-A165 Neutralization Potency in HMVEC-d cells (Human VEGF-A 165): 2.15 nM

Reference: patent publication US20170015742A1 (published 2017)
